The RNAGym collection of RNA variant scans (doi:10.1073/pnas.2313332121)

B1: TPR t1 (parent)
chain: GACCAAUCUGCCCUCAGAGCUCGAGAACAUCUUCGGAUGCAGAGGAGGCAGGCUUCGGUGGCGCGAUAGCGCCAACGUCCUCAACCUCCAAUGCAUCCCACCACAUGAUGAUGCCUGAAGAGCCUUGGUUUUUUG

Variants of: B1
Assay: polymerase ribozyme fitness, log enrichment relative to wild type (log ratio); higher = more active; in vitro selection for triplet polymerase activity
Outline: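 Input and output libraries were sequenced on Illumina after a single in vitro selection round, run in triplicate on PCR-built, transcribed mutant libraries of each subunit of a heterodimeric triplet polymerase ribozyme. Selection annealed libraries to a biotinylated primer, the partner subunit and triplets, incubated them frozen at −7 °C, then gel-excised extended constructs for streptavidin-bead capture and RT-PCR. Genotypes with ≥10 input reads and ≥1 read per output were kept. Fitness is the logarithm, taken in base 2, of genotype enrichment divided by wild-type enrichment, using inverse-variance-weighted replicate averages.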

| Variant | polymerase ribozyme fitness (log ratio) |
| --- | --- |
| C12U U125A | 0.114 |
| C11U A26U | -3.21 |
| A6C C70G C82A | -2.15 |
| C13U G63A G77A C89U A90U G113A G122A U125A G127C | -5.73 |
| G19A G110A | -2.58 |
| A84U G110C | -4.16 |
| U7G G10A A41G C73G C79A C80A C115A | -3.06 |
| C3A C4A C40U C104A U112G | -3.41 |
| U109C A111C | -3.65 |
| U7G C12U C20A | -1.34 |
| G10U C20A C56U | -2.94 |
| G10U C88G G110C | -5.78 |
| C13G A16U C56U A105G A111C | -4.91 |
| A119U G135U | -1.1 |
| U9A G45U | -2.23 |
| C3U C12A U87C C124U | -0.256 |
| C20U G44A C64U | -2.89 |
| G10U G51A | -2.56 |
| C53U G71A C124A G128C | -1.39 |
| G17U C22G U33G G61A C115A | -4.69 |
| C11G C13A A16U C79U | -2.88 |
| G61C U92A | -4.11 |
| G61U A111U | -1.75 |
| G61U U106A | 0.146 |

| Variant | polymerase ribozyme fitness (log ratio) |
| --- | --- |
| C70G U78C G113C | -5.1 |
| C3A C123A | -1.18 |
| C12U C62A U81G C115A | -2.91 |
| A5G G17U A18G A100C A121G C124G | -3.51 |
| G36U G63A C85A | -3.57 |
| A84U C102U | -2 |
| G93A U116A U130G | -4.69 |
| C80U C98A U132C | -5.2 |
| C4U C114G | -2.65 |
| C123A | 0.556 |
| C11G U78C C102A A118U | -1.3 |
| G60A C89A C115U | -2.92 |
| C3U C85U | -1.43 |
| C3A U21A G120C | -1.39 |
| C80A G117U | -5.19 |
| G47A C49A G60C G128C | -4.7 |
| U21G C40G | -0.951 |
| C15A G117A U129C | -2.87 |
| C11G G44C C79G | -2.6 |
| U32A G61A C123G | -1.69 |
| U32G G35A C98A C99U U109A | -6.04 |
| A6U C79A G110A | -2.78 |
| U78A G107A | -5.55 |
| A43U A46C C115U U116C | -2.39 |

| Variant | polymerase ribozyme fitness (log ratio) |
| --- | --- |
| C62A A83U U92A U116C | -5.36 |
| A24G A50C G63U A118U G122A | -7.26 |
| A43C C85A C104U G113A | -2.96 |
| C64U G127U | -0.401 |
| C98A C123A | -3.79 |
| G42C C79U C82G C85G G110C | -5.74 |
| A41C U55A G61U C102U | -3.48 |
| A2C C3G C28G C82G A121C G128C | -4.07 |
| C15G G39U C72A | -3.5 |
| C72G U78C C79A G128C | -4.09 |
| U59C G120C G128U U130A | 1.03 |
| A6C C70A C73U | -2.44 |
| A46U U59C C101U A121U | 0.445 |
| C62U U81C C94U U96C C114A | -2.82 |
| C8U C12U G57C A90U | -0.755 |
| G10A C11A G42U G48A A91G C115U | -2.2 |
| C28U G69A | -4.67 |
| C13A C101U G113A | -2.95 |
| C114U U130A | -2.7 |
| G39A A43G C73G U129G | -5.71 |
| G44U G61A | -1.47 |
| C56G C72A C79U | -1.41 |
| G17A A18C C86G | -3.63 |
| C62U G107U | -4.02 |

| Variant | polymerase ribozyme fitness (log ratio) |
| --- | --- |
| A46C U54A | -0.931 |
| U7C G48U A91U G113U G117A | -7.92 |
| C15A G57C | -1.91 |
| C56U C79U U92C U112A | -0.412 |
| C15A C88A | -1.56 |
| A41G A46C | -1.95 |
| G52U C70U G113U | -5.82 |
| C12U A16G C28U A46C G120C | -1.6 |
| C4U U7G C22G U55G A91C C124A | -3.16 |
| U59C C79U C114U | -1.91 |
| G10C A43G | -3.12 |
| U9G C56G A103U | -4.39 |
| C89U U112A | -0.432 |
| C62U C99U C101U | -3.02 |
| C11G G57A G93A U96A | -2.56 |
| C12U C56U G58A G71U U112C G122A | 0.796 |
| A6C G120U | 0.259 |
| U78C A100U | -0.819 |
| A29U G77U | -1.77 |
| U7A U112A | 1.69 |
| C12U U38C G71U C101G | -2.11 |
| A5U A66C G113U C124A | -4.62 |
| A6U A46U U116A | -4.28 |
| G71A G93U | -1.52 |

| Variant | polymerase ribozyme fitness (log ratio) |
| --- | --- |
| C56U G113C | -1.97 |
| U9A A105C G122A | -1.54 |
| A6U G45C C72G C101U G110C | -4.94 |
| C28G G48C A83G A84U G120C | -2.29 |
| A27G U38A | -3.17 |
| C40A G69A | -4.81 |
| C12G C102A | -1.85 |
| A6C G47U C124A | -1.59 |
| A18U C124U | -1.01 |
| C99U | -3.02 |
| C11G C49U | 0.783 |
| U21A U38G C56A | -1.66 |
| C12U G117A G127C | -0.67 |
| G23A C62A | -7.09 |
| G42A C72U C85U | -2.92 |
| C73U U116A | -3.52 |
| C12U C20A C22G U112A | -3.37 |
| A6U C97A | -3.55 |
| C85A C99U G113A | -4.82 |
| C11A G60A C101A C124G | 0.624 |
| A26U C53U U116G | -6.15 |
| U9A C13U C64G | -5.17 |
| A5U G42A | -1.63 |
| C20G G42U G113C | -3.64 |

| Variant | polymerase ribozyme fitness (log ratio) |
| --- | --- |
| C70U C124U | 0.579 |
| C3U C8A U54A G69C | -1.46 |
| C11G C15G G36U A74C G117C | 0.809 |
| C13G A119U C123U | 1.58 |
| C8U C64U C72A U109A | -4.83 |
| G48C C73G G93A | -1.8 |
| A50U C101U A105U A121U U130C | -2.62 |
| A46C C114U U130G | -3.02 |
| A16U U55C | -2.11 |
| G10U C114A U125A G135U | -3.39 |
| G107U C123G | -2.37 |
| A2U C13U A50G U112C | 0.516 |
| U78C G93C U96C C115A | -1.13 |
| C8G G60U C70U C79A U96C | -4.38 |
| C11G G110A | -1.04 |
| A18G C82A C94U | -4.18 |
| A5U C49G C70G | -4.62 |
| G42C G47U A108C G110A U112A | -7.49 |
| A43U G47U G61A C72G C97U | -2.63 |
| A6C C12G G57U | -0.469 |
| C12U A41G G48A C86U | -0.927 |
| C13U G71A C79U C123U | 1.62 |
| U9A G51C C86G U87A | -5.3 |
| G23U C56U C70G A75U U78A C99A U112A | -6.9 |

| Variant | polymerase ribozyme fitness (log ratio) |
| --- | --- |
| C72U U78C C82G C101A A121C | -0.0659 |
| C64U G77U | -0.465 |
| C11G A121G G127U | 0.00144 |
| C8G C80U | 0.0565 |
| U54G A68C C101A G113U | -7.46 |
| C13A C28G A46G G110C U125C | -0.574 |
| U32G C70A G117A | -5.24 |
| C12G C49A G77C | -0.254 |
| U14A A83U C86A U112A U131A | -2.42 |
| A26U G63U | -3.98 |
| G44U U55A A68U G69U C86G G120U | -7.36 |
| G93A G135U | -2.04 |
| G63A C88U G120A G122U | -0.851 |
| C13G U54C C89U A90U | -3.33 |
| C8G C13A U67C | -4.98 |
| C20U C40U G61U U96G C115G U134A | -3.07 |
| G45A C72U | -0.796 |
| C56A C62U C85U | -1.64 |
| C13U C80U | -0.427 |
| G52C C73U G110U | -2.38 |
| C20U U109A | -4.34 |
| G36C U38C G71U | -4.73 |
| C11A C56G | -1.77 |
